The values below come from patent US20090118184A1 (UNIVERSITY OF ROCHESTER, published 2009).

T1: factor VIIIa A1/A3C1C2 dimer, wild type (human, UniProt P00451 20-391; P00451 1709-2351)
T1 sequence 1: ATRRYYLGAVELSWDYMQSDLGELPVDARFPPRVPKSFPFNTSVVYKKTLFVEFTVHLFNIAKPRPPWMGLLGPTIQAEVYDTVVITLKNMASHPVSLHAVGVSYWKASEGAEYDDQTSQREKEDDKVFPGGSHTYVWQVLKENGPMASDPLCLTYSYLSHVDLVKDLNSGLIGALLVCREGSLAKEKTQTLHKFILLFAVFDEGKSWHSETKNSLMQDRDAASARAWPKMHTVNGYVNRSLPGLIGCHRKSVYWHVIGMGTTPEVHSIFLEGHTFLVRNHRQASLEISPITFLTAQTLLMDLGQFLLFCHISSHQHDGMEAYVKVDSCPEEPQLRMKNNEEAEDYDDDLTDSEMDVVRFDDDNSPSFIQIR
T1 sequence 2: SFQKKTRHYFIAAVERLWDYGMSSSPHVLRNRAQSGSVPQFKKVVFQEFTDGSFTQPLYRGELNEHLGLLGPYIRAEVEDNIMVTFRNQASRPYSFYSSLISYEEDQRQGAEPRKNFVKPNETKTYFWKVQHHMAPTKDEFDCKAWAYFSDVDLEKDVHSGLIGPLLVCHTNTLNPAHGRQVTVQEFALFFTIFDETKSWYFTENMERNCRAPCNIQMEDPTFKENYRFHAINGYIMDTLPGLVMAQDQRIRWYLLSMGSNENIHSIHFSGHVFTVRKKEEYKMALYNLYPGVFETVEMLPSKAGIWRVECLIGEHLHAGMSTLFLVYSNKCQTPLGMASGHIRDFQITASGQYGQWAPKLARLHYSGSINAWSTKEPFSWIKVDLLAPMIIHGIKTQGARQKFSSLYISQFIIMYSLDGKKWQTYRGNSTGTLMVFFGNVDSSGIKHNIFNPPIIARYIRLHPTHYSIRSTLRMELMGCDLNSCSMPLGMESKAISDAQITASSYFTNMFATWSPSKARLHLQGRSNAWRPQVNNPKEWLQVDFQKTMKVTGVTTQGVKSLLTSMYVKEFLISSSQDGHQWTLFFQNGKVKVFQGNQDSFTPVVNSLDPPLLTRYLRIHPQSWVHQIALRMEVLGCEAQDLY

B1: factor VIIIa A2 subunit, S524A (other)
chain: SVAKKHPKTWVHYIAAEEEDWDYAPLVLAPDDRSYKSQYLNNGPQRIGRKYKKVRFMAYTDETFKTREAIQHESGILGPLLYGEVGDTLLIIFKNQASRPYNIYPHGITDVRPLYSRRLPKGVKHLKDFPILPGEIFKYKWTVTVEDGPTKADPRCLTRYYSSFVNMERDLASGLIGPLLICYKESVDQRGNQIMSDKRNVILFSVFDENRSWYLTENIQRFLPNPAGVQLEDPEFQASNIMHSINGYVFDSLQLSVCLHEVAYWYILSIGAQTDFLSVFFSGYTFKHKMVYEDTLTLFPFSGETVFMSMENPGLWILGCHNSDFRNRGMTALLKVSSCDKNTGDYYEDSYEDISAYLLSKNNAIEPR
B2: factor VIIIa A2 subunit, Y664F (other)
chain: SVAKKHPKTWVHYIAAEEEDWDYAPLVLAPDDRSYKSQYLNNGPQRIGRKYKKVRFMAYTDETFKTREAIQHESGILGPLLYGEVGDTLLIIFKNQASRPYNIYPHGITDVRPLYSRRLPKGVKHLKDFPILPGEIFKYKWTVTVEDGPTKSDPRCLTRYYSSFVNMERDLASGLIGPLLICYKESVDQRGNQIMSDKRNVILFSVFDENRSWYLTENIQRFLPNPAGVQLEDPEFQASNIMHSINGYVFDSLQLSVCLHEVAYWYILSIGAQTDFLSVFFSGYTFKHKMVFEDTLTLFPFSGETVFMSMENPGLWILGCHNSDFRNRGMTALLKVSSCDKNTGDYYEDSYEDISAYLLSKNNAIEPR
B3: factor VIIIa A2 subunit, D696A (other)
chain: SVAKKHPKTWVHYIAAEEEDWDYAPLVLAPDDRSYKSQYLNNGPQRIGRKYKKVRFMAYTDETFKTREAIQHESGILGPLLYGEVGDTLLIIFKNQASRPYNIYPHGITDVRPLYSRRLPKGVKHLKDFPILPGEIFKYKWTVTVEDGPTKSDPRCLTRYYSSFVNMERDLASGLIGPLLICYKESVDQRGNQIMSDKRNVILFSVFDENRSWYLTENIQRFLPNPAGVQLEDPEFQASNIMHSINGYVFDSLQLSVCLHEVAYWYILSIGAQTDFLSVFFSGYTFKHKMVYEDTLTLFPFSGETVFMSMENPGLWILGCHNSAFRNRGMTALLKVSSCDKNTGDYYEDSYEDISAYLLSKNNAIEPR
B4: factor VIIIa A2 subunit, E540A (other)
chain: SVAKKHPKTWVHYIAAEEEDWDYAPLVLAPDDRSYKSQYLNNGPQRIGRKYKKVRFMAYTDETFKTREAIQHESGILGPLLYGEVGDTLLIIFKNQASRPYNIYPHGITDVRPLYSRRLPKGVKHLKDFPILPGEIFKYKWTVTVEDGPTKSDPRCLTRYYSSFVNMARDLASGLIGPLLICYKESVDQRGNQIMSDKRNVILFSVFDENRSWYLTENIQRFLPNPAGVQLEDPEFQASNIMHSINGYVFDSLQLSVCLHEVAYWYILSIGAQTDFLSVFFSGYTFKHKMVYEDTLTLFPFSGETVFMSMENPGLWILGCHNSDFRNRGMTALLKVSSCDKNTGDYYEDSYEDISAYLLSKNNAIEPR
B5: factor VIIIa A2 subunit, R531A (other)
chain: SVAKKHPKTWVHYIAAEEEDWDYAPLVLAPDDRSYKSQYLNNGPQRIGRKYKKVRFMAYTDETFKTREAIQHESGILGPLLYGEVGDTLLIIFKNQASRPYNIYPHGITDVRPLYSRRLPKGVKHLKDFPILPGEIFKYKWTVTVEDGPTKSDPRCLTAYYSSFVNMERDLASGLIGPLLICYKESVDQRGNQIMSDKRNVILFSVFDENRSWYLTENIQRFLPNPAGVQLEDPEFQASNIMHSINGYVFDSLQLSVCLHEVAYWYILSIGAQTDFLSVFFSGYTFKHKMVYEDTLTLFPFSGETVFMSMENPGLWILGCHNSDFRNRGMTALLKVSSCDKNTGDYYEDSYEDISAYLLSKNNAIEPR
B6: factor VIIIa A2 subunit, S654A (other)
chain: SVAKKHPKTWVHYIAAEEEDWDYAPLVLAPDDRSYKSQYLNNGPQRIGRKYKKVRFMAYTDETFKTREAIQHESGILGPLLYGEVGDTLLIIFKNQASRPYNIYPHGITDVRPLYSRRLPKGVKHLKDFPILPGEIFKYKWTVTVEDGPTKSDPRCLTRYYSSFVNMERDLASGLIGPLLICYKESVDQRGNQIMSDKRNVILFSVFDENRSWYLTENIQRFLPNPAGVQLEDPEFQASNIMHSINGYVFDSLQLSVCLHEVAYWYILSIGAQTDFLSVFFAGYTFKHKMVYEDTLTLFPFSGETVFMSMENPGLWILGCHNSDFRNRGMTALLKVSSCDKNTGDYYEDSYEDISAYLLSKNNAIEPR
B7: factor VIIIa A2 subunit, E683A (other)
chain: SVAKKHPKTWVHYIAAEEEDWDYAPLVLAPDDRSYKSQYLNNGPQRIGRKYKKVRFMAYTDETFKTREAIQHESGILGPLLYGEVGDTLLIIFKNQASRPYNIYPHGITDVRPLYSRRLPKGVKHLKDFPILPGEIFKYKWTVTVEDGPTKSDPRCLTRYYSSFVNMERDLASGLIGPLLICYKESVDQRGNQIMSDKRNVILFSVFDENRSWYLTENIQRFLPNPAGVQLEDPEFQASNIMHSINGYVFDSLQLSVCLHEVAYWYILSIGAQTDFLSVFFSGYTFKHKMVYEDTLTLFPFSGETVFMSMANPGLWILGCHNSDFRNRGMTALLKVSSCDKNTGDYYEDSYEDISAYLLSKNNAIEPR
B8: factor VIIIa A2 subunit, N538A (other)
chain: SVAKKHPKTWVHYIAAEEEDWDYAPLVLAPDDRSYKSQYLNNGPQRIGRKYKKVRFMAYTDETFKTREAIQHESGILGPLLYGEVGDTLLIIFKNQASRPYNIYPHGITDVRPLYSRRLPKGVKHLKDFPILPGEIFKYKWTVTVEDGPTKSDPRCLTRYYSSFVAMERDLASGLIGPLLICYKESVDQRGNQIMSDKRNVILFSVFDENRSWYLTENIQRFLPNPAGVQLEDPEFQASNIMHSINGYVFDSLQLSVCLHEVAYWYILSIGAQTDFLSVFFSGYTFKHKMVYEDTLTLFPFSGETVFMSMENPGLWILGCHNSDFRNRGMTALLKVSSCDKNTGDYYEDSYEDISAYLLSKNNAIEPR
B9: factor VIIIa A2 subunit, S650A (other)
chain: SVAKKHPKTWVHYIAAEEEDWDYAPLVLAPDDRSYKSQYLNNGPQRIGRKYKKVRFMAYTDETFKTREAIQHESGILGPLLYGEVGDTLLIIFKNQASRPYNIYPHGITDVRPLYSRRLPKGVKHLKDFPILPGEIFKYKWTVTVEDGPTKSDPRCLTRYYSSFVNMERDLASGLIGPLLICYKESVDQRGNQIMSDKRNVILFSVFDENRSWYLTENIQRFLPNPAGVQLEDPEFQASNIMHSINGYVFDSLQLSVCLHEVAYWYILSIGAQTDFLAVFFSGYTFKHKMVYEDTLTLFPFSGETVFMSMENPGLWILGCHNSDFRNRGMTALLKVSSCDKNTGDYYEDSYEDISAYLLSKNNAIEPR
B10: factor VIIIa A2 subunit, D666A (other)
chain: SVAKKHPKTWVHYIAAEEEDWDYAPLVLAPDDRSYKSQYLNNGPQRIGRKYKKVRFMAYTDETFKTREAIQHESGILGPLLYGEVGDTLLIIFKNQASRPYNIYPHGITDVRPLYSRRLPKGVKHLKDFPILPGEIFKYKWTVTVEDGPTKSDPRCLTRYYSSFVNMERDLASGLIGPLLICYKESVDQRGNQIMSDKRNVILFSVFDENRSWYLTENIQRFLPNPAGVQLEDPEFQASNIMHSINGYVFDSLQLSVCLHEVAYWYILSIGAQTDFLSVFFSGYTFKHKMVYEATLTLFPFSGETVFMSMENPGLWILGCHNSDFRNRGMTALLKVSSCDKNTGDYYEDSYEDISAYLLSKNNAIEPR
B11: factor VIIIa A2 subunit, N684A (other)
chain: SVAKKHPKTWVHYIAAEEEDWDYAPLVLAPDDRSYKSQYLNNGPQRIGRKYKKVRFMAYTDETFKTREAIQHESGILGPLLYGEVGDTLLIIFKNQASRPYNIYPHGITDVRPLYSRRLPKGVKHLKDFPILPGEIFKYKWTVTVEDGPTKSDPRCLTRYYSSFVNMERDLASGLIGPLLICYKESVDQRGNQIMSDKRNVILFSVFDENRSWYLTENIQRFLPNPAGVQLEDPEFQASNIMHSINGYVFDSLQLSVCLHEVAYWYILSIGAQTDFLSVFFSGYTFKHKMVYEDTLTLFPFSGETVFMSMEAPGLWILGCHNSDFRNRGMTALLKVSSCDKNTGDYYEDSYEDISAYLLSKNNAIEPR

This test addresses T1, factor VIIIa A1/A3C1C2 dimer, wild type. Nature of the test: cell-based or functional assay.
As to B1, the “Factor VIIIa decay rate relative to wild type, FIXa (+)” value is 40.4 relative to wild type; the “Factor VIIIa decay rate relative to wild type, FIXa (-)” value is 7 relative to wild type; the “Factor VIIIa decay rate, FIXa (+)” value turned out to be 0.455 min⁻¹; the “Factor VIIIa decay rate, FIXa (-)” value is 0.442 min⁻¹.

Turning to B2, the “Factor VIIIa decay rate relative to wild type, FIXa (+)” value is 1.31 relative to wild type and the “Factor VIIIa decay rate, FIXa (+)” value was determined as 0.0148 min⁻¹.

As to B3, the “Factor VIIIa decay rate relative to wild type, FIXa (+)” value is 1.05 relative to wild type and the “Factor VIIIa decay rate, FIXa (+)” value is 0.0118 min⁻¹.

Consider B4, for which the “Factor VIIIa decay rate relative to wild type, FIXa (+)” value is 0.81 relative to wild type and the “Factor VIIIa decay rate, FIXa (+)” value stood at 0.0091 min⁻¹.

Take B5: the “Factor VIIIa decay rate relative to wild type, FIXa (+)” value is 6.72 relative to wild type and the “Factor VIIIa decay rate, FIXa (+)” value was 0.0758 min⁻¹.

In the case of B6, the “Factor VIIIa decay rate relative to wild type, FIXa (+)” value was 1.28 relative to wild type and the “Factor VIIIa decay rate, FIXa (+)” value is 0.0145 min⁻¹.

Take B7: the “Factor VIIIa decay rate relative to wild type, FIXa (+)” value is 2.33 relative to wild type and the “Factor VIIIa decay rate, FIXa (+)” value came to 0.0263 min⁻¹.

Consider B8, for which the “Factor VIIIa decay rate relative to wild type, FIXa (+)” value was 1.28 relative to wild type and the “Factor VIIIa decay rate, FIXa (+)” value amounted to 0.0144 min⁻¹.

As to B9, the “Factor VIIIa decay rate relative to wild type, FIXa (+)” value is 2.81 relative to wild type and the “Factor VIIIa decay rate, FIXa (+)” value came to 0.0317 min⁻¹.

For B10, the “Factor VIIIa decay rate relative to wild type, FIXa (+)” value is 4.83 relative to wild type and the “Factor VIIIa decay rate, FIXa (+)” value was determined as 0.0545 min⁻¹.

Consider B11, for which the “Factor VIIIa decay rate relative to wild type, FIXa (+)” value is 36.3 relative to wild type; the “Factor VIIIa decay rate relative to wild type, FIXa (-)” value is 18.8 relative to wild type; the “Factor VIIIa decay rate, FIXa (+)” value stood at 0.41 min⁻¹; the “Factor VIIIa decay rate, FIXa (-)” value was found to be 1.18 min⁻¹.
